Source: paper PMC9408373 (2022)
Blank lines part the entries; values can stand above or below the binder they belong to.

Key:
[1] = molecular target: T1, human CDC42 (aa 1-178), wild type (human, UniProt P60953 1-178); assay: FP; mGDP-bound CDC42
[2] = molecular target: T1, human CDC42 (aa 1-178), wild type; assay: FP; mGppNHp-bound CDC42

T1 sequence (P60953 1-178): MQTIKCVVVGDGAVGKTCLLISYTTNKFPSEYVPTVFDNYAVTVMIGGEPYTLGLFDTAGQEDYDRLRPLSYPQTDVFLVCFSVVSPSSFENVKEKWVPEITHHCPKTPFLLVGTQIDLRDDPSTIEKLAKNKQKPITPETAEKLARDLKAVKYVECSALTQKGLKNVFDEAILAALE

Kd [1]: 55 µM
B1: human IQGAP2 GRD2 (aa 875-1246) (domain or fragment)
chain: SKERRKTLETYQQLFYLLQTNPLYLAKLIFQMPQNKSTKFMDTVIFTLYNYASNQREEYLLLKLFKTALEEEIKSKVDQVQDIVTGNPTVIKMVVSFNRGARGQNTLRQLLAPVVKEIIDDKSLIINTNPVEVYKAWVNQLETQTGEASKLPYDVTTEQALTYPEVKNKLEASIENLRRVTDKVLNSIISSLDLLPYGLRYIAKVLKNSIHEKFPDATEDELLKIVGNLLYYRYMNPAIVAPDGFDIIDMTAGGQINSDQRRNLGSVAKVLQHAASNKLFEGENEHLSSMNNYLSETYQEFRKYFKEACNVPEPEEKFNMDKYTDLVTVSKPVIYISIEEIISTHSLLLEHQDAIAPEKNDLLSELLGSLGE

Kd [1]: 150 µM | Kd [2]: 152 µM
B2: human IQGAP1 GRD1 (aa 962-1345) (domain or fragment)
chain: SKEKREKLEAYQHLFYLLQTNPTYLAKLIFQMPQNKSTKFMDSVIFTLYNYASNQREEYLLLRLFKTALQEEIKSKVDQIQEIVTGNPTVIKMVVSFNRGARGQNALRQILAPVVKEIMDDKSLNIKTDPVDIYKSWVNQMESQTGEASKLPYDVTPEQALAHEEVKTRLDSSIRNMRAVTDKFLSAIVSSVDKIPYGMRFIAKVLKDSLHEKFPDAGEDELLKIIGNLLYYRYMNPAIVAPDAFDIIDLSAGGQLTTDQRRNLGSIAKMLQHAASNKMFLGDNAHLSIINEYLSQSYQKFRRFFQTACDVPELQDKFNVDEYSDLVTLTKPVIYISIGEIINTHTLLLDHQDAIAPEHNDPIHELLDDLGEVPTIESLIGESS

Kd [1]: 64 µM
B3: human IQGAP1 C794 (aa 863-1657) (domain or fragment)
chain: DPPMVVVRKFVHLLDQSDQDFQEELDLMKMREEVITLIRSNQQLENDLNLMDIKIGLLVKNKITLQDVVSHSKKLTKKNKEQLSDMMMINKQKGGLKALSKEKREKLEAYQHLFYLLQTNPTYLAKLIFQMPQNKSTKFMDSVIFTLYNYASNQREEYLLLRLFKTALQEEIKSKVDQIQEIVTGNPTVIKMVVSFNRGARGQNALRQILAPVVKEIMDDKSLNIKTDPVDIYKSWVNQMESQTGEASKLPYDVTPEQALAHEEVKTRLDSSIRNMRAVTDKFLSAIVSSVDKIPYGMRFIAKVLKDSLHEKFPDAGEDELLKIIGNLLYYRYMNPAIVAPDAFDIIDLSAGGQLTTDQRRNLGSIAKMLQHAASNKMFLGDNAHLSIINEYLSQSYQKFRRFFQTACDVPELQDKFNVDEYSDLVTLTKPVIYISIGEIINTHTLLLDHQDAIAPEHNDPIHELLDDLGEVPTIESLIGESSGNLNDPNKEALAKTEVSLTLTNKFDVPGDENAEMDARTILLNTKRLIVDVIRFQPGETLTEILETPATSEQEAEHQRAMQRRAIRDAKTPDKMKKSKSVKEDSNLTLQEKKEKIQTGLKKLTELGTVDPKNKYQELINDIARDIRNQRRYRQRRKAELVKLQQTYAALNSKATFYGEQVDYYKSYIKTCLDNLASKGKVSKKPREMKGKKSKKISLKYTAARLHEKGVLLEIEDLQVNQFKNVIFEISPTEEVGDFEVKAKFMGVQMETFMLHYQDLLQLQYEGVAVMKLFDRAKVNVNLLIFLLNKKFYGK

Kd [1]: 113 µM
B4: human IQGAP2 C795 (aa 780-1575) (domain or fragment)
chain: PLTVIRKFVYLLDQSDLDFQEELEVARLREEVVTKIRANQQLEKDLNLMDIKIGLLVKNRITLEDVISHSKKLNKKKGGEMEILNNTDNQGIKSLSKERRKTLETYQQLFYLLQTNPLYLAKLIFQMPQNKSTKFMDTVIFTLYNYASNQREEYLLLKLFKTALEEEIKSKVDQVQDIVTGNPTVIKMVVSFNRGARGQNTLRQLLAPVVKEIIDDKSLIINTNPVEVYKAWVNQLETQTGEASKLPYDVTTEQALTYPEVKNKLEASIENLRRVTDKVLNSIISSLDLLPYGLRYIAKVLKNSIHEKFPDATEDELLKIVGNLLYYRYMNPAIVAPDGFDIIDMTAGGQINSDQRRNLGSVAKVLQHAASNKLFEGENEHLSSMNNYLSETYQEFRKYFKEACNVPEPEEKFNMDKYTDLVTVSKPVIYISIEEIISTHSLLLEHQDAIAPEKNDLLSELLGSLGEVPTVESFLGEGAVDPNDPNKANTLSQLSKTEISLVLTSKYDIEDGEAIDSRSLMIKTKKLIIDVIRNQPGNTLTEILETPATAQQEVDHATDMVSRAMIDSRTPEEMKHSQSMIEDAQLPLEQKKRKIQRNLRTLEQTGHVSSENKYQDILNEIAKDIRNQRIYRKLRKAELAKLQQTLNALNKKAAFYEEQINYYDTYIKTCLDNLKRKNTRRSIKLDGKGEPKGAKRAKPVKYTAAKLHEKGVLLDIDDLQTNQFKNVTFDIIATEDVGIFDVRSKFLGVEMEKVQLNIQDLLQMQYEGVAVMKMFDKVKVNVNLLIYLLNKKFYGK
